Sequences and labels used below:
B1: WLSTSIPEA (peptide)
peptide: WLSTSIPEA
notes: gene: FASN
B2: FLDDGNQMLL (peptide)
peptide: FLDDGNQMLL
notes: gene: DYNC2H1
B3: SLDVVNLLV (peptide)
peptide: SLDVVNLLV
notes: gene: ANKRD50
B4: FLTPPLLSV (peptide)
peptide: FLTPPLLSV
notes: gene: AP2A1
B5: GLALLYSGV (peptide)
peptide: GLALLYSGV
notes: gene: ATP6V0B
B6: GLAHFVNEI (peptide)
peptide: GLAHFVNEI
notes: gene: ZMYM2
B7: SLVDARFQL (peptide)
peptide: SLVDARFQL
notes: gene: OSR1
B8: FLIESKLLSL (peptide)
peptide: FLIESKLLSL
notes: gene: DRC1
B9: SLSDVRVIV (peptide)
peptide: SLSDVRVIV
notes: gene: RALGAPA2
B10: YTLSKTEFL (peptide)
peptide: YTLSKTEFL
notes: gene: S100A11
B11: YLDEIPPKFSM (peptide)
peptide: YLDEIPPKFSM
notes: gene: TACSTD2
B12: VLKVFLENV (peptide)
peptide: VLKVFLENV
B13: SLLGGITVV (peptide)
peptide: SLLGGITVV
notes: gene: SPAG9
B14: VILDKYYFL (peptide)
peptide: VILDKYYFL
notes: gene: TMPRSS4
B15: GLIDSLMAYV (peptide)
peptide: GLIDSLMAYV
notes: gene: PKP1
B16: IITDLLRSV (peptide)
peptide: IITDLLRSV
notes: gene: FUBP1
B17: SLFDGIATGL (peptide)
peptide: SLFDGIATGL
notes: gene: DNMT3A
B18: KVFGGFQVV (peptide)
peptide: KVFGGFQVV
notes: gene: HES1
B19: FIPDFAVAI (peptide)
peptide: FIPDFAVAI
notes: gene: COL6A3
B20: IQDPVIFYV (peptide)
peptide: IQDPVIFYV
notes: gene: GPR126
B21: YLPDSLTQL (peptide)
peptide: YLPDSLTQL
notes: gene: LRRC1
B22: SIAAYNPVV (peptide)
peptide: SIAAYNPVV
notes: gene: DHRS2
B23: YLIGQHVTA (peptide)
peptide: YLIGQHVTA
notes: gene: FBXO21
B24: YLARIQGFQV (peptide)
peptide: YLARIQGFQV
notes: gene: STAU2
B25: TLGVIPESV (peptide)
peptide: TLGVIPESV
notes: gene: USP48
B26: GLYSGEVLV (peptide)
peptide: GLYSGEVLV
notes: gene: WDR34
B27: RLLELLQEA (peptide)
peptide: RLLELLQEA
notes: gene: PROM2
B28: KLAEISLGV (peptide)
peptide: KLAEISLGV
notes: gene: DSG3
B29: LLSEDFVSV (peptide)
peptide: LLSEDFVSV
notes: gene: SPATA20
B30: IIDSSPTAL (peptide)
peptide: IIDSSPTAL
notes: gene: ATAD5
B31: LULAKLEKV (peptide)
peptide: L[pT]LAKLEKV
notes: gene: C9orf156

Non-standard residues stand in square brackets, D forms with d. No end group written: not given here. pT = C[C@@H](OP(=O)(O)O)[C@H](N)C(=O)O

The target of the first assay is T1, HLA-A*02:01 (human).
T1 construct: MHC monomer first loaded with a UV-sensitive peptide, which is cleaved by UV and exchanged with the test peptide; captured on streptavidin plates; also called peptide-receptive MHC molecules
The experiment in a line: UV-ligand exchange + anti-b2m ELISA; ++++ = peptide exchange yield >75%. An excerpt: (§1) Candidate peptides for T cell based therapies according to the present invention were further tested for their MHC binding capacity (affinity). The individual peptide-MHC complexes were produced by UV-ligand exchange, where a UV-sensitive peptide is cleaved upon UV-irradiation, and exchanged with the peptide of interest as analyzed. Only peptide candidates that can effectively bind and stabilize the peptide-receptive MHC molecules prevent dissociation of the MHC complexes. To determine the yield of the exchange reaction, an ELISA was performed based on the detection of the light chain (β2m) of stabilized MHC complexes. The assay was performed as generally described in Rodenko et al. (Rodenko et al., 2006).
(§2) 96 well MAXISorp plates (NUNC) were coated over night with 2 ug/ml streptavidin in PBS at room temperature, washed 4× and blocked forth at 37° C. in 2% BSA containing blocking buffer. Refolded HLA-A*02:01/MLA-001 monomers served as standards, covering the range of 15-500 ng/ml. Peptide-MHC monomers of the UV-exchange reaction were diluted 100 fold in blocking buffer. Samples were incubated for 1 h at 37° C., washed four times, incubated with 2 ug/ml HRP conjugated anti-β2m for 1 h at 37° C., washed again and detected with TMB solution that is stopped with […]. Absorption was measured at 450 nm. Candidate peptides that show a high exchange yield (preferably higher than 50%, most preferred higher than 75%) are generally preferred for a generation and production of antibodies or fragments thereof, and/or T cell receptors or fragments thereof, as they show sufficient avidity to the MHC molecules and prevent dissociation of the MHC complexes.
In general terms: An ELISA detects its analyte on a solid surface through an enzyme-linked reagent.
B1: the peptide exchange yield is more than 75%. Same read-out and setting: the figure for B2 is more than 75%; for B3 it is more than 75%. The same measure, in the same setting: the figure for B4 is more than 75%. On to B5, for which the peptide exchange yield was more than 75%. On the same count and under the same terms, the figure for B6 is more than 75%; for B7 it is more than 75%; for B8 it is more than 75%.

Take B9: the peptide exchange yield is more than 75%. Same read-out and setting: to B10 belongs more than 75%; to B11, more than 75%. On the same count and under the same terms, the figure for B12 is more than 75%; for B13 it is more than 75%; for B14 it is more than 75%.

In the case of B15, the peptide exchange yield was more than 75%. For B16, the peptide exchange yield is more than 75%. The same measure, in the same setting: to B17 belongs more than 75%; to B18, more than 75%.

With B19, the peptide exchange yield was more than 75%. Still for that read-out and setting: to B20 belongs more than 75%.

Take B21: the peptide exchange yield was more than 75%. The same measure, in the same setting: the figure for B22 is more than 75%. In the case of B23, the peptide exchange yield is more than 75%. Still for that read-out and setting: to B24 belongs more than 75%; to B25, more than 75%.

Consider B26, for which the peptide exchange yield is more than 75%. On the same count and under the same terms, to B27 belongs more than 75%.

Another assay addresses T1, HLA-A*02:01. Put plainly: UV-ligand exchange + anti-b2m ELISA; ++ = peptide exchange yield >20%.
Source text: as §1, §2
Take B28: the peptide exchange yield lay within 20 to 50%. Same read-out and setting: the figure for B29 is 20 to 50%; for B30 it is 20 to 50%. As to B31, the peptide exchange yield was 20 to 50%.

Values taken from patent US20170253633A1 (IMMATICS BIOTECHNOLOGIES, published 2017).
